Results published in patent US20240352090A1, “USE OF PROTEIN SEQUENCE CAPABLE OF BINDING TO SUBSTRATE IN PREPARATION OF PRODUCT FOR INHIBITING FIBRIN ASSEMBLY” (NANJING UNIVERSITY, priority 2021, published 2024).
Where a chain is given by its changes, count along the chain named.

T1: fibrin aggregates (Homo sapiens, UniProt P02671)
T1 construct: Thrombin cleaves the α and γ subunits of fibrin, exposing fibrinopeptide A (Knob A) and fibrinopeptide B (Knob B)
T1 sequence (P02671 36-866 limits assumed): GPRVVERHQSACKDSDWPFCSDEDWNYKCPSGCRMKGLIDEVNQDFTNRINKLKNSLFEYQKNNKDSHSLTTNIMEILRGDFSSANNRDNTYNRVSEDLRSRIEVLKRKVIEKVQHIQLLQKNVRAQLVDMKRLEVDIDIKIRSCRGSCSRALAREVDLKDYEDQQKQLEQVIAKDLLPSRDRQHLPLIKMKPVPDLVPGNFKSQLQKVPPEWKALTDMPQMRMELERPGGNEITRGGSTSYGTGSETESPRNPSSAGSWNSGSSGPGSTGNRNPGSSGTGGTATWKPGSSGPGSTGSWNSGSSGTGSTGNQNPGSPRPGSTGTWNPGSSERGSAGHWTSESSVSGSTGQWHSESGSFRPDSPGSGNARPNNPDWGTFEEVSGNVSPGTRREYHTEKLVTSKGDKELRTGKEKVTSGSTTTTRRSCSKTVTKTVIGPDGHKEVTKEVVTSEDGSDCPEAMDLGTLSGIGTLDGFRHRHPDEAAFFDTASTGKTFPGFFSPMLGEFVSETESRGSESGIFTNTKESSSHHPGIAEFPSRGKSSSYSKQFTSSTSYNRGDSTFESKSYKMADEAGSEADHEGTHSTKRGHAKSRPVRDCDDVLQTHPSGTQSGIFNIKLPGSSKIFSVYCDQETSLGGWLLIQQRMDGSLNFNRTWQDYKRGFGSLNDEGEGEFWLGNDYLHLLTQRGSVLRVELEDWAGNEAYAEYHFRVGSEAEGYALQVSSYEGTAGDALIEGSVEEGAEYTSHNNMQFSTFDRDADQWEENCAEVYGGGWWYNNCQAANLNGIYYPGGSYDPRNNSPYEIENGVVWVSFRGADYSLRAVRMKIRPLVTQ
T1 sequence (P02675 45-491 partner limits assumed): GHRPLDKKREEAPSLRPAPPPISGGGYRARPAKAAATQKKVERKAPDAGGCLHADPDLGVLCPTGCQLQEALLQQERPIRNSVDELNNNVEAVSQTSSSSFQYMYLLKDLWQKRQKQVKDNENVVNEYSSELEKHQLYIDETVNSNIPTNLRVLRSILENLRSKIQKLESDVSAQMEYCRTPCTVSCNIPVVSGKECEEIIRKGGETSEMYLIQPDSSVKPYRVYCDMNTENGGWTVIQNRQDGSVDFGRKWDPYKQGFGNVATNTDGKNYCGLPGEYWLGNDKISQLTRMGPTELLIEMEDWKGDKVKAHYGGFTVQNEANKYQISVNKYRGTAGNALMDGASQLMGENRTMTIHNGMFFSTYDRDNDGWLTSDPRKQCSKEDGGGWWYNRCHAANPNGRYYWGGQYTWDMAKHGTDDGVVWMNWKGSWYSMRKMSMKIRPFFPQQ
T1 sequence (P02679 27-453 partner): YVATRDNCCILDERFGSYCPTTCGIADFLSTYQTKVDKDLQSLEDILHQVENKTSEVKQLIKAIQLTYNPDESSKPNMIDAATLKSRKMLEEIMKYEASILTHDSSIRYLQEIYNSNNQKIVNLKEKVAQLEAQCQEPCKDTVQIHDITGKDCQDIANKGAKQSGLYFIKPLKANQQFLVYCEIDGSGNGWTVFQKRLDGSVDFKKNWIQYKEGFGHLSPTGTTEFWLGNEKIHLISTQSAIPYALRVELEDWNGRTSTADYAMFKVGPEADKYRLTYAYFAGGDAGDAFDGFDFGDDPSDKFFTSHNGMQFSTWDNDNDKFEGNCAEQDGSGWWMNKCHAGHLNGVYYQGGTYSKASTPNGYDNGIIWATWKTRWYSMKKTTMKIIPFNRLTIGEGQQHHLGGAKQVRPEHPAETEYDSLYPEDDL

T2: fibrin (Homo sapiens, UniProt P02671)
T2 construct: Thrombin cleaves the α and γ subunits of fibrin, exposing fibrinopeptide A (Knob A) and fibrinopeptide B (Knob B)
T2 sequence (P02671 36-866 limits assumed): T1 sequence (P02671 36-866 limits assumed)
T2 sequence (P02675 45-491 partner limits assumed): T1 sequence (P02675 45-491 partner limits assumed)
T2 sequence (P02679 27-453 partner): T1 sequence (P02679 27-453 partner)

B1: FD: Fibrinogen structural domain protein of FGL1, positions 48-290 of SEQ ID No. 1 (SEQ ID No. 3) (protein)
chain: TVIDLGSKRQYADCSEIFNDGYKLSGFYKIKPLQSPAEFSVYCDMSDGGGWTVIQRRSDGSENFNRGWKDYENGFGNFVQKHGEYWLGNKNLHFLTTQEDYTLKIDLADFEKNSRYAQYKNFKVGDEKNFYELNIGEYSGTAGDSLAGNFHPEVQWWASHQRMKFSTWDRDHDNYEGNCAEEDQSGWWFNRCHSANLNGVYYSGPYTAKTDNGIVWYTWHGWWYSLKSVVMKIRPNDFIPNVI
B2: FD mutant: FD with tryptophan at key positions 204 and 269 mutated to alanine (protein)
chain: B1 chain with W157A, W222A

Tests used:
fibrin aggregates [1] = biological target: T1, fibrin aggregates; experiment: synergistic dissolving of fibrin aggregates with tissue plasminogen activator tPA; assay type: biochemical; details: 2 nM tPA plus different doses, added after 1 h of fibrin formation
Procedure: The Multifunctional enzyme marker M200PRO detected the light scattering process, and the excitation light of the instrument was adjusted to 350 nm and the emission light to 350 nm. 3.3 μM of Fibrinogen in the control group, 3.3 μM of Fibrinogen and 2.5 U/ml of thrombin in the model group. The above systems were all set up in 20 mM Tris-HCl, pH 7.4, 150 mM NaCl ±[…] CaCl2 solution in a 100 μl/well (96-well plate). After 1 h of gel-like fibrin formation, 100 μl, 2 nM tissue plasminogen activator tPA and different doses of Fibrinogen like protein 1 (FGL1) were added. Kinetic curves were measured at 25° C. by detecting A350 absorption values every minute.
The control group was a reagent control, and the administered groups were 2 nM tissue plasminogen activator tPA, different doses of Fibrinogen like protein 1 (FGL1) alone groups, and groups in combination with other reagents. Kinetic curves were measured at 37° C. using a multifunctional enzyme marker M200PRO to detect the absorption values of the 510 nm excitation light every minute.
The Multifunctional enzyme marker M200PRO detected the light scattering process, and the excitation light of the instrument was adjusted to 350 nm and the emission light to 350 nm. […] Kinetic curves were measured at 25° C. by detecting A350 absorption values every minute. […]

fibrin [2] = biological target: T2, fibrin; experiment: fibrin aggregation, light scattering / A350 kinetic curve; assay type: biochemical; details: 3.3 μM Fibrinogen, 2.5 U/ml thrombin, ±5 mM CaCl2, 25° C., different doses
Procedure: Multifunctional enzyme marker M200PRO detected the light scattering process, and the instrument excitation light was adjusted to 350 nm and emission light to 350 nm. 3.3 μM of Fibrinogen in the control group, 3.3 μM of Fibrinogen and 2.5 U/ml of thrombin in the model group and 3.3 μM of Fibrinogen and 2.5 U/ml thrombin and different dose of Fibrinogen related protein 1 (FGL1). All the above systems were in 20 mM Tris-HCl, pH 7.4, 150 mM NaCl±5 mM CaCl2 solution in a 100 μl/well (96-well plate). The kinetic curve was measured by assaying every minute at 25° C.
Multifunctional enzyme marker M200PRO detected the light scattering process; the instrument excitation light was adjusted to 350 nm, and the emission light was adjusted to 350 nm. 3.3 μM of Fibrinogen in the control group, 3.3 μM of Fibrinogen and 2.5 U/ml of thrombin in the model group, and 3.3 μM of Fibrinogen and 2.5 U/ml thrombin and different dose of fibrinogen structural domain (FD). The above systems were in 20 mM Tris-HCl, pH 7.4, 150 mM NaCl±5 mM CaCl2 solution. The kinetic curves were measured at 25° C. by detecting the A350 absorption values every minute.

fibrin aggregates [3] = biological target: T1, fibrin aggregates; experiment: synergistic dissolving of fibrin aggregates with urokinase uPA; assay type: biochemical
[4] = tested on: thrombin-induced thrombosis model; experiment: thrombin-induced thrombosis model, plasmid injection and overexpression; assay type: in vivo, BALB/c mice; details: expression plasmid 100 μg per mouse tail vein, overexpression; thrombin 15 U per mouse; deaths within 1 hour
Procedure: Construct FGL1 expression plasmid with pcDNA3.1 vector, inject the plasmid into the tail vein of mice, 100 μg/2 ml PBS/per mouse, extract the plasma of the mice after 18 hours, and detect the overexpressed FGL1 content in the plasma by ELISA;
Thrombin 15 U/200 μl PBS/per mouse was injected into the tail vein for modelling, and the number of mice in each group that died within 1 hour after injection was recorded to calculate the protection rate of Fibrinogen like protein 1 (FGL1) overexpression.
The specific operation methods were the same as those described previously for the protective effects of overexpression of FGL1.

fibrin [5] = biological target: T2, fibrin; experiment: fibrin aggregation observed by scanning electron microscopy; assay type: biochemical; details: FIG. 12
mouse thrombus = mouse thrombus morphology observed by scanning electron microscopy; assay type: in vivo, mice; details: FIG. 14
aggregated fibrin = experiment: cleavage of aggregated fibrin; assay type: biochemical; details: FIG. 27
From the text: Mutation of certain key sites in this protein's amino acid sequence can also enhance its function of inhibiting thrombosis.

Row | Molecule | dissolving fibrin aggregates together with tPA (fibrin aggregates [1]) | effect on fibrin aggregation (fibrin [2]) | dissolving fibrin aggregates together with urokinase uPA (fibrin aggregates [3]; 800 U/ml uPA plus different doses of FGL1) | survival rate of mice [4] | structure of thrombus formed by fibrin aggregation (fibrin [5]) | dissolving fibrin aggregates together with urokinase uPA (fibrin aggregates [3]; 2800 U/ml uPA plus different doses of FD (800 U/ml in thrombus lysis)) | morphology of mouse thrombus (mouse thrombus) | cleavage of aggregated fibrin, mutant compared to unmutated form (aggregated fibrin)
1 | FGL1: Fibrinogen like protein 1, amino acid sequence SEQ ID No. 1, expressed in eukaryotic cells; given as pcDNA3.1 expression plasmid in Example 6 | synergistically dissolving fibrin aggregates | inhibits fibrin aggregation | synergistically dissolving fibrin aggregates | significantly increasing the survival rate of mice | – | – | – | –
2 | B1 | synergistically dissolving fibrin aggregates | inhibits fibrin aggregation | – | significant improvement of survival rate in mice | becomes thinner and looser in structure | synergistically dissolving fibrin aggregates | becomes thinner and looser in structure | –
3 | B2 | – | – | – | – | – | – | – | significantly enhanced
